According to US20040235717A1 (published 2004):

T1: androgen receptor, wild type, full length (UniProt P10275 1-920)
T1 construct: also called AR; wtAR
T1 sequence (looked up): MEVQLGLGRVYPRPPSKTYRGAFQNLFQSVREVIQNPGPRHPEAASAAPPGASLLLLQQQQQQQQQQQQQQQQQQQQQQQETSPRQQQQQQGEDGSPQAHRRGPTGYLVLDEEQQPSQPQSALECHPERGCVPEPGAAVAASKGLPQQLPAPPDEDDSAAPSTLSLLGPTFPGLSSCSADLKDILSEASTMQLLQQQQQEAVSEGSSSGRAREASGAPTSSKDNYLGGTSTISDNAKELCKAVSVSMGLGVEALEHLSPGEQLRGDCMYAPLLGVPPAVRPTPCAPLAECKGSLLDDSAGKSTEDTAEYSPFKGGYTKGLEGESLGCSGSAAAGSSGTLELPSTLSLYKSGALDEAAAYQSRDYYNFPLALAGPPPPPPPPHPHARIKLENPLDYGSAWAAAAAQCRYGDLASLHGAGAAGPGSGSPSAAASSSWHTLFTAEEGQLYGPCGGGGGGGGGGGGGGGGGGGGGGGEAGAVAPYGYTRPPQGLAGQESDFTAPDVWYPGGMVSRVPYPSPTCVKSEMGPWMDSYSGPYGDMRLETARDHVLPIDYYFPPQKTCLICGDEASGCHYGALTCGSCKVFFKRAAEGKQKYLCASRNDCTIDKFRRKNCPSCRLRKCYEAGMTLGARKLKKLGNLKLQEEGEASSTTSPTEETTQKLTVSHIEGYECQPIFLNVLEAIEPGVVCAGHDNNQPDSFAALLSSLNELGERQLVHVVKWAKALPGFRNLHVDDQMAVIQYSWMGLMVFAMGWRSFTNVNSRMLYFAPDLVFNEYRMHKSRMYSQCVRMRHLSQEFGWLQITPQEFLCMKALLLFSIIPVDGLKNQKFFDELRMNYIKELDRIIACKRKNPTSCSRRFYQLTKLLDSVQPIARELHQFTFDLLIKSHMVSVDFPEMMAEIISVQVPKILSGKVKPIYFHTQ


Tests used:
[1] = molecular target: T1, androgen receptor, wild type, full …; assay: co-immunoprecipitation in PC-3(AR)2 cells overexpressing Flag-Smad3, Flag-Smad4 and AR
[2] = molecular target: T1, androgen receptor, wild type, full …; assay: anti-Smad3 immunoprecipitation from PC-3(AR)2 cells, immunoblot for AR
[3] = molecular target: T1, androgen receptor, wild type, full …; assay: GST pull-down of 35S-AR with PTEN deletion mutants
[4] = molecular target: T1, androgen receptor, wild type, full …; assay: co-immunoprecipitation in prostate cancer cells

binding result [1]	Binder	binding result [3]	further results
binds	N-terminal Flag-tagged, full-length Smad3 (other, human, UniProt P84022 1-425, looked up, Expressed in PC-3 or PC-3(AR)2 cells; also called Flag-Smad3; FLAG-Smad3; not shown: N-terminal Flag tag) MSSILPFTPPIVKRLLGWKKGEQNGQEEKWCEKAVKSLVKKLKKTGQLDELEKAITTQNVNTKCITIPRSLDGRLQVSHRKGLPHVIYCRLWRWPDLHSHHELRAMELCEFAFNMKKDEVCVNPYHYQRVETPVLPPVLVPRHTEIPAEFPPLDDYSHSIPENTNFPAGIEPQSNIPETPPPGYLSEDGETSDHQMNHSMDAGSPNLSPNPMSPAHNNLDLQPVTYCEPAFWCSISYYELNQRVGETFHASQPSMTVDGFTDPSNSERFCLGLLSNVNRNAAVELTRRHIGRGVRLYYIGGEVFAECLSDSAIFVQSPNCNQRYGWHPATVCKIPPGCNLKIFNNQEFAALLAQSVNQGFEAVYQLTRMCTIRMSFVKGWGAEYRRQTVTSTPCWIELHLNGPLQWLDKVLTQMGSPSIRCSSVS	–	–
–	Smad3 (full length, untagged) (other, human, UniProt P84022 1-425, looked up, also called endogenous Smad3; [35S]-labeled Smad3) MSSILPFTPPIVKRLLGWKKGEQNGQEEKWCEKAVKSLVKKLKKTGQLDELEKAITTQNVNTKCITIPRSLDGRLQVSHRKGLPHVIYCRLWRWPDLHSHHELRAMELCEFAFNMKKDEVCVNPYHYQRVETPVLPPVLVPRHTEIPAEFPPLDDYSHSIPENTNFPAGIEPQSNIPETPPPGYLSEDGETSDHQMNHSMDAGSPNLSPNPMSPAHNNLDLQPVTYCEPAFWCSISYYELNQRVGETFHASQPSMTVDGFTDPSNSERFCLGLLSNVNRNAAVELTRRHIGRGVRLYYIGGEVFAECLSDSAIFVQSPNCNQRYGWHPATVCKIPPGCNLKIFNNQEFAALLAQSVNQGFEAVYQLTRMCTIRMSFVKGWGAEYRRQTVTSTPCWIELHLNGPLQWLDKVLTQMGSPSIRCSSVS	–	binding result [2]: binds
binds	N-terminal Flag-tagged, full-length Smad4 (other, human, UniProt Q13485 1-552, looked up, Expressed in PC3-AR2 cells; also called Flag-Smad4; FLAG-Smad4; not shown: N-terminal Flag tag) MDNMSITNTPTSNDACLSIVHSLMCHRQGGESETFAKRAIESLVKKLKEKKDELDSLITAITTNGAHPSKCVTIQRTLDGRLQVAGRKGFPHVIYARLWRWPDLHKNELKHVKYCQYAFDLKCDSVCVNPYHYERVVSPGIDLSGLTLQSNAPSSMMVKDEYVHDFEGQPSLSTEGHSIQTIQHPPSNRASTETYSTPALLAPSESNATSTANFPNIPVASTSQPASILGGSHSEGLLQIASGPQPGQQQNGFTGQPATYHHNSTTTWTGSRTAPYTPNLPHHQNGHLQHHPPMPPHPGHYWPVHNELAFQPPISNHPAPEYWCSIAYFEMDVQVGETFKVPSSCPIVTVDGYVDPSGGDRFCLGQLSNVHRTEAIERARLHIGKGVQLECKGEGDVWVRCLSDHAVFVQSYYLDREAGRAPGDAVHKIYPSAYIKVFDLRQCHRQMQQQAATAQAAAAAQAAAVAGNIPGPGSVGGIAPAISLSAAAGIGVDDLRRLCILRMSFVKGWGPDYPRQSIKETPCWIEIHLHRALQLLDEVLHTMPIADPQPLD	–	–
–	GST-PTEN-#1 (aa 1-107) (other, UniProt P60484 1-107, looked up, not shown: glutathione S-transferase (GST), pGEM-KG vector) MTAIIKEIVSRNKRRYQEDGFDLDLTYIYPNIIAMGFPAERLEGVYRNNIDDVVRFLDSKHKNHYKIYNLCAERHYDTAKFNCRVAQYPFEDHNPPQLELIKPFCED	no binding	–
–	PTEN (phosphatase and tensin homolog deleted on chromosome ten), wild type, full length (enzyme, Stood as in vitro expressed 35S-PTEN, as Dox-induced PTEN in LNCaP PTEN-C1 cells, as endogenous PTEN of CWR22 cells and as transfected PTEN in COS-1 cells; also called [35S]-PTEN; pCDNA3-PTEN) not shown	–	binding result [4]: binds
–	GST-PTEN-#3 (aa 253-403) (other, UniProt P60484 253-403, looked up, range 253-403; not shown: glutathione S-transferase (GST), pGEX-3x vector) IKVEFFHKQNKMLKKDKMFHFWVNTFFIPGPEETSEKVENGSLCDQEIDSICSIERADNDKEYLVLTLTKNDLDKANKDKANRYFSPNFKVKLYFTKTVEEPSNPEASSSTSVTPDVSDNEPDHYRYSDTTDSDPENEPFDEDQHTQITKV	no binding	–
